Measured values from the supplement of paper PMC10567573.

B1: PDS5B (parent)
chain: ITYPPGVKEISDKISKEEMVRRLK

Variants of: B1
Assay: protein stability index of a GFP-peptide fusion (GPS, HEK-293T) (PSI 1-6); higher = more stable
Conditions: c terminus: a fixed tail appended
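Further: lentivirally expressed fusions sorted by FACS into six bins by GFP to DsRed ratio, PSI derived from sequencing read proportions per bin multiplied by bin number.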

Row | Variant | protein stability index
1 | ITYPPGVKEIIDKISKEEMVRRLK | 2.83
2 | ITYPPGVKEIWDKISKEEMVRRLK | 2.67
3 | ITYPPGVKEIVDKISKEEMVRRLK | 2.8
4 | ITYPPGVKEIRDKISKEEMVRRLK | 3.4
5 | ITYPPGVKEIGDKISKEEMVRRLK | 3.92
6 | ITYPPGVKEILDKISKEEMVRRLK | 2.38
7 | ITYPPGVKEIHDKISKEEMVRRLK | 4.04
8 | ITYPPGVKEIKDKISKEEMVRRLK | 4.72
9 | ITYPPGVKEIADKISKEEMVRRLK | 3.85
10 | ITYPPGVKEIFDKISKEEMVRRLK | 3.3
11 | ITYPPGVKEIQDKISKEEMVRRLK | 4.16
12 | ITYPPGVKEIMDKISKEEMVRRLK | 2.35
13 | ITYPPGVKEITDKISKEEMVRRLK | 4.08
14 | ITYPPGVKEIEDKISKEEMVRRLK | 4.04
15 | ITYPPGVKEINDKISKEEMVRRLK | 3.98
16 | ITYPPGVKEICDKISKEEMVRRLK | 3.94
17 | ITYPPGVKEIPDKISKEEMVRRLK | 4.29
18 | ITYPPGVKEISDKISKEEFVRRLK | 3.26
19 | ITYPPGVKEISDKISKEETVRRLK | 4.99
20 | ITYPPGVKEISDKISKEEEVRRLK | 4.79
21 | ITYPPGVKEISDKISKEEYVRRLK | 3.96
22 | ITYPPGVKEISDKISKEEIVRRLK | 4.24
23 | ITYPPGVKEISDKISKEEGVRRLK | 4.29
24 | ITYPPGVKEISDKISKEENVRRLK | 4.76

Row | Variant | protein stability index
25 | ITYPPGVKEISDKISKEERVRRLK | 4.34
26 | ITYPPGVKEISDKISKEEPVRRLK | 4.64
27 | ITYPPGVKEISDKISKEECVRRLK | 4.1
28 | ITYPPGVKEISDKISKEEAVRRLK | 3.68
29 | ITYPPGVKEISDKISKEEHVRRLK | 4.74
30 | ITYPPGVKEISDKISKEESVRRLK | 5.02
31 | ITYPPGVKEISDKISKEEKVRRLK | 4.54
32 | ITYPPGVKEISDKISKEEVVRRLK | 4.65
33 | ITYPPGVKEISDKINKEEMVRRLK | 3.89
34 | ITYPPGVKEISDKIAKEEMVRRLK | 4.27
35 | ITYPPGVKEISDKIWKEEMVRRLK | 2.13
36 | ITYPPGVKEISDKIIKEEMVRRLK | 2.73
37 | ITYPPGVKEISDKICKEEMVRRLK | 3.23
38 | ITYPPGVKEISDKIEKEEMVRRLK | 4.81
39 | ITYPPGVKEISDKIMKEEMVRRLK | 4.01
40 | ITYPPGVKEISDKIHKEEMVRRLK | 4.52
41 | ITYPPGVKEISDKIFKEEMVRRLK | 2.33
42 | ITYPPGVKEISDKIQKEEMVRRLK | 3.65
43 | ITYPPGVKEISDKIRKEEMVRRLK | 3.7
44 | ITYPPGVKEISDKIDKEEMVRRLK | 4.26
45 | ITYPPGVKEISDKITKEEMVRRLK | 3.66
46 | ITYPPGVKEISDKIYKEEMVRRLK | 3.46
47 | ITYPPGVKEISDEISKEEMVRRLK | 4.34
48 | ITYPPGVKEISDAISKEEMVRRLK | 4.08

Row | Variant | protein stability index
49 | ITYPPGVKEISDMISKEEMVRRLK | 3.76
50 | ITYPPGVKEISDLISKEEMVRRLK | 3.3
51 | ITYPPGVKEISDCISKEEMVRRLK | 2.79
52 | ITYPPGVKEISDPISKEEMVRRLK | 4.52
53 | ITYPPGVKEISDVISKEEMVRRLK | 3.51
54 | ITYPPGVKEISDTISKEEMVRRLK | 3.96
55 | ITYPPGVKEISDQISKEEMVRRLK | 4.33
56 | ITYPPGVKEISDHISKEEMVRRLK | 3.7
57 | ITYPPGVKEISDNISKEEMVRRLK | 3.72
58 | ITYPPGVKEISDSISKEEMVRRLK | 4.35
59 | ITYPPGVKEISDWISKEEMVRRLK | 2.84
60 | ITYPPGVKEISDDISKEEMVRRLK | 4.69
61 | ITYPPGVKEISDYISKEEMVRRLK | 3.38
62 | ITYPPGVKEISDFISKEEMVRRLK | 3.42
63 | ITYPPGVKEISDIISKEEMVRRLK | 4.1
64 | ITYPPGVKEISDRISKEEMVRRLK | 4.39
65 | ITYPPGVKEISDGISKEEMVRRLK | 3.75
66 | ITYPPGVKEYSDKISKEEMVRRLK | 4.44
67 | ITYPPGVKERSDKISKEEMVRRLK | 3.74
68 | ITYPPGVKEHSDKISKEEMVRRLK | 3.62
69 | ITYPPGVKELSDKISKEEMVRRLK | 4.33
70 | ITYPPGVKEGSDKISKEEMVRRLK | 4.61
71 | ITYPPGVKEESDKISKEEMVRRLK | 4.38
72 | ITYPPGVKENSDKISKEEMVRRLK | 4.68

Row | Variant | protein stability index
73 | ITYPPGVKEQSDKISKEEMVRRLK | 4.36
74 | ITYPPGVKEASDKISKEEMVRRLK | 4.03
75 | ITYPPGVKEVSDKISKEEMVRRLK | 4.62
76 | ITYPPGVKEFSDKISKEEMVRRLK | 4.31
77 | ITYPPGVKESSDKISKEEMVRRLK | 4.53
78 | ITYPPGVKEPSDKISKEEMVRRLK | 4.27
79 | ITYPPGVKEDSDKISKEEMVRRLK | 4.88
80 | ITYPPGVKEISDKISKECMVRRLK | 3.86
81 | ITYPPGVKEISDKISKEVMVRRLK | 3.6
82 | ITYPPGVKEISDKISKETMVRRLK | 4.12
83 | ITYPPGVKEISDKISKEGMVRRLK | 3.86
84 | ITYPPGVKEISDKISKEQMVRRLK | 4.15
85 | ITYPPGVKEISDKISKESMVRRLK | 3.21
86 | ITYPPGVKEISDKISKEAMVRRLK | 4.37
87 | ITYPPGVKEISDKISKEIMVRRLK | 2.84
88 | ITYPPGVKEISDKISKEKMVRRLK | 3.17
89 | ITYPPGVKEISDKISKEHMVRRLK | 4.01
90 | ITYPPGVKEISDKISKEPMVRRLK | 3.69
91 | ITYPPGVKEISDKISKEMMVRRLK | 3.12
92 | ITYPPGVKEISDKISKEFMVRRLK | 2.18
93 | ITYPPGVKEISDKISKEYMVRRLK | 2.86
94 | ITYPPGVKEISDKISKELMVRRLK | 1.84
95 | ITYPPGVKEISTKISKEEMVRRLK | 3.69
96 | ITYPPGVKEISQKISKEEMVRRLK | 3.29

Row | Variant | protein stability index
97 | ITYPPGVKEISGKISKEEMVRRLK | 3.15
98 | ITYPPGVKEISVKISKEEMVRRLK | 3.3
99 | ITYPPGVKEISFKISKEEMVRRLK | 2.71
100 | ITYPPGVKEISKKISKEEMVRRLK | 3.43
101 | ITYPPGVKEISYKISKEEMVRRLK | 2.46
102 | ITYPPGVKEISEKISKEEMVRRLK | 3.57
103 | ITYPPGVKEISAKISKEEMVRRLK | 2.75
104 | ITYPPGVKEISWKISKEEMVRRLK | 2.85
105 | ITYPPGVKEISCKISKEEMVRRLK | 3.03
106 | ITYPPGVKEISLKISKEEMVRRLK | 3.18
107 | ITYPPGVKEISIKISKEEMVRRLK | 3.04
108 | ITYPPGVKEISPKISKEEMVRRLK | 3.7
109 | ITYPPGVKEISHKISKEEMVRRLK | 3.83
110 | ITYPPGVKEISRKISKEEMVRRLK | 3.19
111 | ITYPPGVKEISNKISKEEMVRRLK | 4.05
112 | ITYPPGVKEISDKISKCEMVRRLK | 2.91
113 | ITYPPGVKEISDKISKLEMVRRLK | 2.59
114 | ITYPPGVKEISDKISKKEMVRRLK | 3.82
115 | ITYPPGVKEISDKISKMEMVRRLK | 2.65
116 | ITYPPGVKEISDKISKPEMVRRLK | 3.6
117 | ITYPPGVKEISDKISKQEMVRRLK | 3.17
118 | ITYPPGVKEISDKISKWEMVRRLK | 2.75
119 | ITYPPGVKEISDKISKNEMVRRLK | 3.75
120 | ITYPPGVKEISDKISKFEMVRRLK | 2.41

Row | Variant | protein stability index
121 | ITYPPGVKEISDKISKHEMVRRLK | 4.17
122 | ITYPPGVKEISDKISKGEMVRRLK | 3.52
123 | ITYPPGVKEISDKISKDEMVRRLK | 3.72
124 | ITYPPGVKEISDKISKSEMVRRLK | 3.68
125 | ITYPPGVKEISDKISKYEMVRRLK | 2
126 | ITYPPGVKEISDKISKTEMVRRLK | 4.68
127 | ITYPPGVKEISDKISKAEMVRRLK | 3.14
128 | ITYPPGVYEISDKISKEEMVRRLK | 3.21
129 | ITYPPGVWEISDKISKEEMVRRLK | 3.09
130 | ITYPPGVTEISDKISKEEMVRRLK | 4.57
131 | ITYPPGVREISDKISKEEMVRRLK | 3.99
132 | ITYPPGVVEISDKISKEEMVRRLK | 4.67
133 | ITYPPGVKEISDKCSKEEMVRRLK | 3.27
134 | ITYPPGVKEISDKYSKEEMVRRLK | 2.68
135 | ITYPPGVKEISDKVSKEEMVRRLK | 4.02
136 | ITYPPGVKEISDKRSKEEMVRRLK | 4.38
137 | ITYPPGVKEISDKASKEEMVRRLK | 4.5
138 | ITYPPGVKEISDKMSKEEMVRRLK | 4.34
139 | ITYPPGVKEISDKNSKEEMVRRLK | 2.93
140 | ITYPPGVKEISDKWSKEEMVRRLK | 3.03
141 | ITYPPGVKEISDKHSKEEMVRRLK | 5.35
142 | ITYPPGVKEISDKTSKEEMVRRLK | 4.08
143 | ITYPPGVKEISDKQSKEEMVRRLK | 5.02
144 | ITYPPGVKEISDKLSKEEMVRRLK | 4.08

Row | Variant | protein stability index
145 | ITYPPGVKEISDKESKEEMVRRLK | 4.61
146 | ITYPPGVKEISDKFSKEEMVRRLK | 3.03
147 | ITYPPGVKEISDKSSKEEMVRRLK | 4.86
148 | ITYPPGVKSISDKISKEEMVRRLK | 3.81
149 | ITYPPGVKTISDKISKEEMVRRLK | 3.15
150 | ITYPPGVKKISDKISKEEMVRRLK | 3.66
151 | ITYPPGVKNISDKISKEEMVRRLK | 3.59
152 | ITYPPGVKFISDKISKEEMVRRLK | 2.97
153 | ITYPPGVKDISDKISKEEMVRRLK | 3.98
154 | ITYPPGVKWISDKISKEEMVRRLK | 2.24
155 | ITYPPGVKIISDKISKEEMVRRLK | 3.15
156 | ITYPPGVKPISDKISKEEMVRRLK | 2.75
157 | ITYPPGVKGISDKISKEEMVRRLK | 4.19
158 | ITYPPGVKCISDKISKEEMVRRLK | 3.13
159 | ITYPPGVKHISDKISKEEMVRRLK | 3.43
160 | ITYPPGVKMISDKISKEEMVRRLK | 3.51
161 | ITYPPGVKLISDKISKEEMVRRLK | 2.09
162 | ITYPPGVKQISDKISKEEMVRRLK | 3.35
163 | ITYPPGVKAISDKISKEEMVRRLK | 4.16
164 | ITYPPGVKYISDKISKEEMVRRLK | 2.79
165 | ITYPPGVKRISDKISKEEMVRRLK | 2.11
166 | ITYPPGVKEISDKISKEEMFRRLK | 3.6
167 | ITYPPGVKEISDKISKEEMDRRLK | 5.06
168 | ITYPPGVKEISDKISKEEMMRRLK | 3.81

Row | Variant | protein stability index
169 | ITYPPGVKEISDKISKEEMHRRLK | 4.19
170 | ITYPPGVKEISDKISKEEMARRLK | 3.59
171 | ITYPPGVKEISDKISKEEMGRRLK | 4.59
172 | ITYPPGVKEISDKISKEEMIRRLK | 3.42
173 | ITYPPGVKEISDKISKEEMLRRLK | 3.49
174 | ITYPPGVKEISDKISKEEMCRRLK | 3.74
175 | ITYPPGVKEISDKISKEEMKRRLK | 4.17
176 | ITYPPGVKEISDKISKEEMNRRLK | 4.4
177 | ITYPPGVKEISDKISFEEMVRRLK | 3
178 | ITYPPGVKEISDKISAEEMVRRLK | 3.92
179 | ITYPPGVKEISDKISIEEMVRRLK | 2.85
180 | ITYPPGVKEISDKISDEEMVRRLK | 3.56
181 | ITYPPGVKEISDKISSEEMVRRLK | 4.47
182 | ITYPPGVKEISDKISHEEMVRRLK | 3.75
183 | ITYPPGVKEISDKISVEEMVRRLK | 3.36
184 | ITYPPGVKEISDKISGEEMVRRLK | 2.83
185 | ITYPPGVKEISDKISEEEMVRRLK | 3.87
186 | ITYPPGVKEISDKISTEEMVRRLK | 3.06
187 | ITYPPGVKEISDKISNEEMVRRLK | 2.63
188 | ITYPPGVKEISDKISCEEMVRRLK | 3.87
